For this data set, the system named is Escherichia coli TOP10. As to the kind of experiment: shrunken log2 fold change of peptide-encoding DNA abundance (4.5 h post-induction vs induction); higher = less antimicrobial activity (less host growth inhibition). As to conditions: time post-induction: 4.5 h; library: site-saturation at positions 5, 18, 19, 20.
Turning to RRIRTRPPRLPRPRPRPVLKPRP, the “shrunken log2 fold change” value was 0.209.
For RRIRHRPPRLPRPRPRPSQPPRP, the “shrunken log2 fold change” value was -0.184.
On to RRIRRRPPRLPRPRPRPWCSPRP, for which the “shrunken log2 fold change” value is -0.0123.
Consider RRIRFRPPRLPRPRPRPCMHPRP, for which the “shrunken log2 fold change” value was -0.111.
As for RRIRLRPPRLPRPRPRPYMQPRP, the “shrunken log2 fold change” value is -0.297.
For RRIRCRPPRLPRPRPRPWWVPRP, the “shrunken log2 fold change” value is -0.208.
Regarding RRIRARPPRLPRPRPRPVEFPRP, the “shrunken log2 fold change” value is 0.108.
As to RRIRKRPPRLPRPRPRPQDKPRP, the “shrunken log2 fold change” value is -0.182.
For RRIRIRPPRLPRPRPRPAWAPRP, the “shrunken log2 fold change” value was 0.243.
With RRIRHRPPRLPRPRPRPIHPPRP, the “shrunken log2 fold change” value is -0.154.
Then RRIRHRPPRLPRPRPRPDIKPRP, with -0.559.
Regarding RRIRVRPPRLPRPRPRPQGMPRP, the “shrunken log2 fold change” value is -1.02.
On to RRIRPRPPRLPRPRPRPSWAPRP, for which the “shrunken log2 fold change” value was 0.0666.
For RRIRCRPPRLPRPRPRPNMRPRP, the “shrunken log2 fold change” value stood at 0.357.
As to RRIRVRPPRLPRPRPRPEHNPRP, the “shrunken log2 fold change” value was -0.244.
On to RRIRDRPPRLPRPRPRPLYYPRP, for which the “shrunken log2 fold change” value was 0.176.
Under RRIRPRPPRLPRPRPRPGDEPRP stands 0.156.
As for RRIRPRPPRLPRPRPRPNFWPRP, the “shrunken log2 fold change” value was 0.153.
With RRIRFRPPRLPRPRPRPKMYPRP, the “shrunken log2 fold change” value is -0.815.
RRIRPRPPRLPRPRPRPLQTPRP: the “shrunken log2 fold change” value is 0.0208.
For the sequence RRIRKRPPRLPRPRPRPAHHPRP, the “shrunken log2 fold change” value is -0.00814.
For RRIRMRPPRLPRPRPRPDQNPRP, the “shrunken log2 fold change” value was determined as 0.405.
Under RRIRGRPPRLPRPRPRPSNNPRP stands 0.0994.
On to RRIRYRPPRLPRPRPRPSWLPRP, for which the “shrunken log2 fold change” value is -0.78.
For the sequence RRIRQRPPRLPRPRPRPHNCPRP, the “shrunken log2 fold change” value was found to be 0.113.
With RRIRNRPPRLPRPRPRPAQTPRP, the “shrunken log2 fold change” value was -0.0137.
Take RRIRRRPPRLPRPRPRPVLMPRP: the “shrunken log2 fold change” value was 0.146.
RRIRNRPPRLPRPRPRPSFWPRP: the “shrunken log2 fold change” value was -0.056.
Take RRIRMRPPRLPRPRPRPLFNPRP: the “shrunken log2 fold change” value is -0.439.
Consider RRIRERPPRLPRPRPRPMNFPRP, for which the “shrunken log2 fold change” value was -0.192.
RRIRARPPRLPRPRPRPETFPRP: the “shrunken log2 fold change” value is -0.0526.
On to RRIRVRPPRLPRPRPRPMLKPRP, for which the “shrunken log2 fold change” value is -0.293.
On to RRIRQRPPRLPRPRPRPHNWPRP, for which the “shrunken log2 fold change” value was -0.311.
Then RRIRRRPPRLPRPRPRPEYMPRP, with 0.0765.
On to RRIRSRPPRLPRPRPRPTHVPRP, for which the “shrunken log2 fold change” value is -0.117.
For RRIRNRPPRLPRPRPRPQNNPRP, the “shrunken log2 fold change” value was -0.734.
RRIRCRPPRLPRPRPRPCGPPRP: the “shrunken log2 fold change” value is -0.104.
Under RRIRKRPPRLPRPRPRPTELPRP stands 0.876; under RRIRNRPPRLPRPRPRPGFLPRP, -0.105.
Regarding RRIRPRPPRLPRPRPRPPEAPRP, the “shrunken log2 fold change” value was 0.0126.
For the sequence RRIRYRPPRLPRPRPRPGTAPRP, the “shrunken log2 fold change” value was -0.39.
On to RRIRDRPPRLPRPRPRPPALPRP, for which the “shrunken log2 fold change” value amounted to 0.239.
As for RRIRFRPPRLPRPRPRPRKRPRP, the “shrunken log2 fold change” value amounted to 0.263.
In the case of RRIRCRPPRLPRPRPRPPIAPRP, the “shrunken log2 fold change” value turned out to be 1.41.
For RRIRMRPPRLPRPRPRPFARPRP, the “shrunken log2 fold change” value worked out at 0.412.
On to RRIRLRPPRLPRPRPRPYCEPRP, for which the “shrunken log2 fold change” value was -0.135.
Then RRIRRRPPRLPRPRPRPNSTPRP, with -0.0128; and RRIRLRPPRLPRPRPRPMFPPRP, with -0.281.
Under RRIRKRPPRLPRPRPRPQQDPRP stands 0.179.
With RRIRLRPPRLPRPRPRPPALPRP, the “shrunken log2 fold change” value was 0.696.
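Further: peptides expressed intracellularly from a pBAD plasmid library in pooled LB shake-flask culture, induced with 0.3% L-arabinose, DNA abundance read by NGS, three biological replicates, DESeq2 with apeglm shrinkage.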
